Measurements from PMC3519786, “Novel Interactions between FOXM1 and CDC25A Regulate the Cell Cycle” (PLoS ONE, 2012).

Molecular target: T1, GAL4-FOXM1 C-terminal fragment (amino acids 330-763) (human, UniProt Q08050-1 330-763)
T1 construct: FOXM1, human, C-terminal fragment, amino acids 330-763; from pCMV-XL5-FOXM1B (Origene); also called C-terminal FOXM1; C-terminus of FOXM1; source: mammalian two-hybrid fusion, U2OS, transfected
T1 sequence (looked up): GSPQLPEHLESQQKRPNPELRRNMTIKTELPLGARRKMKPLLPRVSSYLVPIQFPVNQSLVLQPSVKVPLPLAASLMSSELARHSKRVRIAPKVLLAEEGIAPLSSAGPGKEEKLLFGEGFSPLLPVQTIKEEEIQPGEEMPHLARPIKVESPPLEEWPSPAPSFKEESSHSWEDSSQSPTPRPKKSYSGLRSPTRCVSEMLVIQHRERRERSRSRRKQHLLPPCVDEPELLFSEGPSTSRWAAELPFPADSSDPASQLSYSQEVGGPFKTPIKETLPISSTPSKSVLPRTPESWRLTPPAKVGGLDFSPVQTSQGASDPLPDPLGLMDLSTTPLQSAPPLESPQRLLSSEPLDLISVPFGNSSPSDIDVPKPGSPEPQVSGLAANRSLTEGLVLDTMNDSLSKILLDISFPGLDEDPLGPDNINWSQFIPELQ
Experiment: two-hybrid; mammalian two-hybrid (Checkmate, Promega) in U2OS; bait pBIND (GAL4 DNA-binding domain)-FOXM1, prey pACT (VP16 activation domain)-CDC25A, reporter pG5-luc; firefly normalised to Renilla luciferase; 2 days
Conditions: partners not purified

B1: VP16-CDC25A (natural protein, UniProt P30304 1-524, looked up)
chain: MELGPEPPHRRRLLFACSPPPASQPVVKALFGASAAGGLSPVTNLTVTMDQLQGLGSDYEQPLEVKNNSNLQRMGSSESTDSGFCLDSPGPLDSKENLENPMRRIHSLPQKLLGCSPALKRSHSDSLDHDIFQLIDPDENKENEAFEFKKPVRPVSRGCLHSHGLQEGKDLFTQRQNSAPARMLSSNERDSSEPGNFIPLFTPQSPVTATLSDEDDGFVDLLDGENLKNEEETPSCMASLWTAPLVMRTTNLDNRCKLFDSPSLCSSSTRSVLKRPERSQEESPPGSTKRRKSMSGASPKESTNPEKAHETLHQSLSLASSPKGTIENILDNDPRDLIGDFSKGYLFHTVAGKHQDLKYISPEIMASVLNGKFANLIKEFVIIDCRYPYEYEGGHIKGAVNLHMEEEVEDFLLKKPIVPTDGKRVIVVFHCEFSSERGPRMCRYVRERDRLGNEYPKLHYPELYVLKGGYKEFFMKCQSYCEPPSYRPMHHEDFKEDLKKFRTKSRTWAGEKSKREMYSRLKKL
notes: CDC25A (cell division cycle 25A) dual phosphatase; plasmid bought from Origene; also called pACT-CDC25A; wild-type CDC25A; source: mammalian two-hybrid fusion, U2OS, transfected
fold above background (normalised luciferase activity): > 60000 fold
